Data taken from the nanobody polyreactivity screen of Harvey et al. (2022).

Assay: yeast display, Sf9 membrane polyspecificity reagent, FACS + sequencing; frameworks hold sequencing errors
How it was run: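 Using colony PCR, genes from sorted yeast display clones were amplified, then sequenced on MiSeq at 2 × 250 and filtered by CDR length. The clones had been stained with 10% biotinylated, detergent-solubilized Sf9 membrane reagent for 1 hour at 4 °C and sorted by FACS into low and high (top ~1%) gates on anti-HA and streptavidin fluorescence. Polyreactivity labels come from the gate of origin.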

Sequence | polyreactivity (PSR sort gate)
QVQLVESGRGLVQAGCSLRLSCAASGRIFPWNAMGWYRQAPGKETEFVAAITSGGGTTYYADSVKGRFTISRDTAKITVYLQMNSLKQEDTAVYYCAAPVYTVRGWRGLYGYWGQGSQVTVSS | high polyreactivity
QVQLVESGGGLVQAGGSLRLSCAASGSIYTSNAMGWYRQAPGKERELVAVITWRSGRTYYADSVKGRFTISRDNAMNTVYLQMNSLKPEDTAVYYCDALRYPKQKFDSWGQGTQVTVSS | high polyreactivity
QVQHVESRGGLVQAGGSLRLSCAASGRTFSRNAMGRYRQAPGKERELVATITSDGSTNYADSVKGRFTISRDNAKNTVYLQMNSLKPEDTAVYYCAAGEQSSIIGAHDYWGQGTQVTVSS | low polyreactivity
QVQLVESGGGLVLAGGSLRLSGAASGRISGYNVLGWARQAAGKERELVAAISGSGGSTYYADSVKGRFTISRDNAKNTVYLQMNSLKPEDTADYYCGKATGYPYDYWGHGTQVTVSS | low polyreactivity
QVQLVESGGGLVQAGGSLRLSCAASGSTFDTYAMGGYRQAPGKERELVAAISYPGGNTYYADSVKGRFTISRDNAKNTVYLQMNRLKPEDTAVYYCNADVVDGGLAYDYWGQGTQVTVSS | low polyreactivity
QVQLVESGGGLVQAGGSLRLSCAASGRTFYRYAMGWYRQAPGKERELVAAITSGDRTDYADSVKGRFTISRDNAKNTVYLQMNSLKPEDTAVYYCAADPYYVTDYDYWGEGTQVTVSS | low polyreactivity
QVQLVESGGGLVQAGGSLRLSCAASGRTFRFYVMGWYRQAPGKERELVAVIRYRGGSTYYADSVKGRFTISRDNAKNTVYLHMNSLTPEDTAVYYCNADFLLAGNEYDYWGQGTQVTVSS | high polyreactivity
QDQLVESGGCLVQAGGSLRLSCAASGSTFPIYAMGWYRQEPGKERELVAPITWNGGRTYYADSVKGRFTISRDNAKNTVYLQMNSLKPEDTAVYYCNALYYHNLEGNYWGQGTQVTVSS | high polyreactivity
QVQLVESGGGVVQAGGSLRLSCAASGFIISYNVMVWYRQAPGKERELVAAISSSGGSTYYADSVKGRFTISRDNAKNTVYLQMNSLKPEDTAVYYCATRVSRSFRAYDYWGQRTQVTVSS | high polyreactivity
QVQHVESGGGLVQAGGSLRLSCASSGRIFPTNAMGWSRQAPGKDRELVASITRSGSTYYADSVKGRFTISRDNAKNTVYLQMNSLKPEDTAVYNCAAYAYIFMDWGGYPYYLYEYEYLGQGTQVTVSS | low polyreactivity
QVQLVESGGGLVQAGGSLRLSCAASGFIFHFNAMGWYRQAPGKERELVAAISRTGGTTYYADSVKGRFTISRDNAKNTVYLQMNSLKPEVTAVYYCAAYSTYVQHYDYWGQGTQVTVSS | high polyreactivity
QVQLVESRGGLVQAGGSLRLSCAASGSIFRSYAMGWYRQAPGKERELVAAIRGSDGNTYYADSVKGRFTISRDNPKNTVYLQMNSLKPEDTAVYYCAADGCLVDDSATRLYYWGQGTQVTVSS | high polyreactivity
QVQLVESGGGLVQAGGSLRLSCAASGLTLTHYAMGWYRQAPGKERELVATISRSGGRTYYADSVKGRFTISRDNAKNTVYLQMNSLKPEDTAVYYCNAEYYYGRGWYDYWGQGTQVTVSS | high polyreactivity
QVQLVESGGGLVQAGGSLRLSCAASGSTFGYYAMGWSRQAPGKEREFVAAITYGDGNTYYADSVKGRFTISRDNAKNTVYLQMNRLKREDTEVYYCAKYYWGPTGAHGGYGYWGQGTQVTVCS | low polyreactivity
QVQLVESGGGLVQAGGSLRLSCAASVGIYSQNVRGWYRQAPGKEWELVAAISRRGGRTYYADSVKGRFKISRDNAKNTVYLQMNSLKPEDTAVYYCATLSPERRVYYTYSGLFEYWGQGTQVTVSS | high polyreactivity
QVQLVESGGGLVQAGGSLRLSCAASGRTFGANAMGWYRQAPGKERELVAGITSSGGSTSYADSVKGRFTISRDNAKNTVYLQMNSLKPEDTAVYYCAKDVYQHIFDVILGGYDSWGQGTQVTVSS | low polyreactivity
QVQLVESGGGLVQAGGSLRLSCAASGSTFVSNGMGWYRQAPGKERELVAAITRGGSTKYADSVKGRFTISRDNAKNTVYLQMNSLKPEDTAVYYCAKRLYTRPGWYDYWGQGTQVTVSS | high polyreactivity
QVQLVESGGGLVQAGGILRLSCAASGRIKPRNAMGWYRQAPGKERELVAAISWDGGSTYYADSVKGRFTISRDNAKNTVYLQINSLKPVDTAVYYCNVYVSAGEEDEYWGQGTQVTVSS | low polyreactivity
QVHHVETGGGLDQAGGTLRLSCAASGRTFCTNAMGWSRQAPGKEWELVAAISSSGGSTYYADSVKGRFTISRDNAKNTVYLQMNSLKPEDTAVYYCAKGWHRGVGFCYWGQGTQVTVSS | high polyreactivity
QVQLVESGGGLVQAGGSLRLSCAASGRIFVYYVMGWYRQAPGKERELVASITFRGSRTYYADSVKGRFTISRDNAKNTVYLQMNSLKPEDTAVDYCNADVWASGSRGEGYWGQGTQVTVSS | low polyreactivity
QDQLVDSGGGLVQAGGSLRLSCAASGRTFESYAMGWYRQAPGKERELVAAISYSGGSTYYADSVKGRFTISRDNAKNTVYLQMNSLKPEDTAVYYCAVRWRYKYDYWGQGTQVTVSS | high polyreactivity
QVQLVESGGGLVQAGGSLRLSCAASGNIFSDNAMGWYRQAPGKERELVAAITSGGSTIYADSVKGRFTISRDNAKNTVYLQMNSLKPEDTAVYYCAADISYRHFLFDFWGQGTQVTVSS | low polyreactivity

Sequence | polyreactivity (PSR sort gate)
QVQLVESGGGLVQAGGSLRLSCAASGIIFTIYTMGWYRQAPGKERELVAAITRSGGSTYYADSVKGRFTISRDNAKNTVYLQMNSLKPEDTAVYYCAAEWQYPDGDDVGSWRYYYWGQGTQVTVSS | high polyreactivity
QVQLEESGGGLVQAGGRLRLTCAASGLTFYANAMGWYRQAPGKERELVATISVGTDSTNYADSVKGRFTISRDNAKNTVYLQMTSMKPEDTAVYYCKALYEEYYAQDPYDYWGQGTQVTVSS | high polyreactivity
QVQLVESGGGLVQAVGSLRLSCAASGSTFHWYDMGWYRQAPGKERELVPGINSSGDGTYYADSVKGRFTISRDNAKNTVYLQMNSLKPEDTAVYDCAAPWWYYGVPYQTNKYDYWGQGTQVTLSS | low polyreactivity
QVQLVESGGGLVQAGGSLRLSCAASGRTFGRYAMGWYRQAPGKERELVATITSGGSTNYADSVKGRFTITRDNAKNTVYLQMNSLKPEDTAVYYCAAEFSPSRWAYSEGALRYNYWGQGTQVTVSS | low polyreactivity
QVQLVESGGGLVQAGGSLRLRCAASGIIFYRNVMGWYRQAPGKERELVAAISGRGGSTYYADSVKGRFTISRDNAKNTVYLQMNILKPEETAVYYCATDTRTWRFTRGAWYTYGSDYWGQGTQVTVSS | high polyreactivity
QVQLVESGGGLVQAGGSLRLSCAAAGFTFYIYAMGWYRKAPGKERELVAAITTTTGSTYYADSVKGRFTISRDNAKNTVYLQMNSLKPEDTAVYYCAAEGHYYYFGYYYWGQGTQVTVSS | low polyreactivity
QDQHVESGGGLVQAGGSLRLSCAASRRTIDLYAMGWYRQAPGKERELVAAITKGGGSTYYADSVKGRFTISRDNATNTVYLQMNSLKPEDTAVFYCAARKYKRIYRISSGIGYYWGQGTQVTVSS | high polyreactivity
QVQLVESGGGLVQAGGSLRLSCAASGSTFYKNAMGWYRQAPGKERELVAAITRSGGSTYYADSVKGRFTISRDNAKNTVYLQMNSLKPVDTAVYYCAYYPYGYDYWGQGTQVTVSS | high polyreactivity
QVQLVESGGGLVPAGGSLRLSCAASGFIFGGYAMGWYRQAPGKERELVADITTSGDSTYYADSVKGRFTISRDNAKNTVYLQMNSLKPEDTAVYYCNAKRSFRWTYGYWGQGTQVTVSS | high polyreactivity
QVQLVESGGGLVQAGGSLRLSCAASGGTFFSNAMGWYRQAPGKERELVAGITSGGRTYYADSVKGRFTISRDNAKNTVYLQMNSLKPEDTAVYYCATQSWVRYGQPEFDYWGQGTQVTVSS | high polyreactivity
QVQLVESGGGLVQAGGSLRLSCAASGLTFQRYAMGWYRQAHGKERELVAAISYRGSRTYYADSVKGRFTISRDNAKNTVYLQMNSMKPEDSAVYYCNKVRTGYGVTYLVGYWGQGTHVTVSS | high polyreactivity
QVQLVESGGGLVQAGGSLRLSCAASGSTFGYNAMGWDRQAPGKERELVAAITGNDGTTYYADSVKGRFTISRDNAKNSVYLQMNSLKPEDSAVYYCAARPYLGYIGYEYWGQGTQVTVSS | low polyreactivity
QVQLVESGGGLVQAGGSLRLSCAASGRTFSYYAMGWYRQAPGKERELVAAITSSGGRTTYADSVKGRFTISRDNAKNTVYLQMNSLKPEDTAVYYCAARHTYQGPGTYPMYYWGQGTQVTVSS | high polyreactivity
QVQLVESGGGLVQAGGSLRLSCAASGYTIRGYVMGWYRQAPGKERELVAAISASGGRTYYADSVKGRFTISRDNAKNTVYLQMNSLKPEHTAVYYCAASKSKISSLDYWGQGTQVTVSS | high polyreactivity
QVQLVESGGGLVQAGGSLRLSCAASGRTFRYYVMGWYRQAPGKERELVATITSNGDSTYYADSVKGRFTISRDNAKNTVYLQMNSLKPEDTAVYYCAVRWRDYRGSYRGFEYWGQGTQVTVSS | high polyreactivity
QVQLVESGGGLVQAGGSLRLSCAAYGSTFRRYGMGWYRQAPGKERELVAAISKGGTRTYYADSVKGRFTISRDNVKNTVYLQMNSLKPEDTAVYYCAAAGASSSTPQKEDYWGQGTQVTVSS | high polyreactivity
QVQLVESGGGLVQAGGSLRLSCADSGFTCYYYTMGWNRPAPWKGRELVAAISWSGGSTYYADSVKGRFTISRDNAKNTVYLQMNSLKPEDPAVYYCNKAYPGRTYDYWGQGSQVTVSS | high polyreactivity
QVQLVESGGGLVQAGGSLRLSCAASGRTFWRNAMGWYRPAPGKERELVAVISVRGSSTSYADSVKGRFTISRDNAKNNVYFQMNILKPEDTGVYYCAAGRRYRSVGYGYWGQGTQLTVSS | high polyreactivity
QVQLVESGGGLVQAGGSLRLSCAASGNTFIPNAMGWSRQAPGKETELVAAIRASGGSTYYADSVKGRFTISRDNAKNTVYLQMNSLKPEDTAVYYCNADIWYKTYDYWGQGTQVTVSS | low polyreactivity
QVQLEESGGGLVQAGGSLRLSCAAYYAMGWYRQAPGKERELVAAISSTGRTNYADSVKGRFTISRDNAKNTVYLQMNSLKPEDTAVYYCNAGDRSGMEYWGQGTQVTVSS | low polyreactivity
QVQLVESGGGLVQAGGSLRLSCAASGSTFSANTKGWYRQAPGTERELVAGITNTGDTYYADSVKGRFTISRDNAKNTVYLQMNSLKPEDTAVYYCAADSWRRTDGAYWSTVYYWGQGTQVTVSS | low polyreactivity
